We go through 5 substances from patent US20140377806A1.

Experiment [1] has as its target human CXCR3 (full length, splice variant A) expressed on transfected cells (human) (UniProt P49682). Briefly: cell-based or functional assay.
Experiment [2] shares this target.
Experiment [3] has as its target Full-length human CXCR3 receptor protein with C-terminal 6xHis and HPC4 tag (human) (UniProt P49682). The experiment is described as follows: SPR (Biacore whole receptor assay), receptor on NTA chip, 1:1 fit. In general terms: In SPR one partner is held on a chip, and binding of the other changes the refractive index at the surface.
Experiment [4] has as its target human CXCR3 (full length, splice variant A) expressed on transfected cells (human) (UniProt P49682). This is another data set of the same source.

As for “Anti-hCXCR3 mAb clone 1C6 (Becton, Dickinson catalog #557183) (antibody)”, in experiment [1], the IC50 (M), calcium mobilization to CXCL10 in human CXCR3-Gqi4qi4 CHO cells is 3.14e-06 M. Moreover, the IC50, inhibition of CXCL11-induced calcium mobilization in hCXCR3 HEK cells (FLIPR); bar labelled '+ CTRL' (panels A to C of the same sheet print '1C6 (+ CTRL)') in experiment [2] worked out at 0.12 µg/mL. In experiment [3], the dissociation constant (Kd) – broadly, the constant that tells how readily two partners part at equilibrium – stood at 3.51 nM; the off-rate constant (koff) – broadly, a measure of how fast the partners let go of each other – is 0.000142 s⁻¹; the kon (usually the rate constant with which the complex forms) was found to be 41100 M⁻¹ s⁻¹. Also, the IC50 (read off the curve), inhibition of CXCL10-induced calcium mobilization [all five panels] in experiment [4] worked out at 3 µg/mL.
Regarding CTRL IgG1 (antibody), in experiment [2], the IC50, inhibition of CXCL11-induced calcium mobilization in hCXCR3 HEK cells (FLIPR); isotype control was 27.6 µg/mL.
As to “human CXCL10 (from UniProt P02778 22-98) (ligand)”, in experiment [3], the dissociation constant (Kd) is 9.76 nM, the koff came to 0.00127 s⁻¹ and the kon was determined as 136000 M⁻¹ s⁻¹.
For the substance “human CXCL11 (from UniProt O14625 22-94) (ligand)”, in experiment [3], the equilibrium dissociation constant (Kd) worked out at 1.72 nM, the koff amounted to 0.00441 s⁻¹ and the kon worked out at 2.58e+06 M⁻¹ s⁻¹.
For “mouse CXCL11 (from UniProt Q9JHH5 22-100) (ligand)”, in that order: 1.17 nM, 0.00426 s⁻¹ and 3.69e+06 M⁻¹ s⁻¹.
